molecular target: T1, CD3ε homodimer protein (human, UniProt P07766 23-126, limits assumed, sulfo-tag or biotin label in the ECL assays; amine-coupled to the chip in SPR); experiment: SPR Biacore T200; CD3ε homodimer on CM4 chip;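 further: Single-residue variant antibodies injected as analyte over CD3ε homodimer immobilized by amine coupling, run at 25 °C in HBS-EP+ buffer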
T1 construct: also called human CD3ε homodimer protein; CD3 (CD3ε)
T1 sequence (P07766 23-126 limits assumed): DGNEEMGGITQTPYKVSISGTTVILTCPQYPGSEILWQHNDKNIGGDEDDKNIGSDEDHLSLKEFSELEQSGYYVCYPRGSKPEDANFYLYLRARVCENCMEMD

Binder | ratio of amounts bound Z=Y/X (altered form / CE115HA000)
CE115HA000 S52cG one-arm antibody (antibody, human IgG1, kappa, L234A L235A, N297A, name in Kabat numbering) heavy: QVQLVESGGGVVQPGRSLRLSCAASGFTFSNAWMHWVRQAPGKGLEWVAQIKAKGNNYATYYAESVKGRFTISRDDSKNSLYLQMNSLKTEDTAVYYCRYVHYGAYYGVDAWGQGTTVTVSSASTKGPSVFPLAPSSKSTSGGTAALGCLVKDYFPEPVTVSWNSGALTSGVHTFPAVLQSSGLYSLSSVVTVPSSSLGTQTYICNVNHKPSNTKVDKKVEPKSCDKTHTCPPCPAPEAAGGPSVFLFPPKPKDTLMISRTPEVTCVVVDVSHEDPEVKFNWYVDGVEVHNAKTKPREEQYASTYRVVSVLTVLHQDWLNGKEYKCKVSNKALPAPIEKTISKAKGQPREPQVYTLPPSRCELTKNQVSLSCAVKGFYPSDIAVEWESNGQPENNYKTTPPVLDSDGSFFLVSKLTVDKSRWQQGNVFSCSVMHEALHNHYTQKSLSLSPDYKDDDDK EPKSSDKTHTCPPCPAPELLGGPSVFLFPPKPKDTLMISRTPEVTCVVVDVSHEDPEVKFNWYVDGVEVHNAKTKPREEQYNSTYRVVSVLTVLHQDWLNGKEYKCKVSNKALPAPIEKTISKAKGQPREPQVCTLPPSRDELTKNQVSLWCLVKGFYPSDIAVEWESNGQPENNYKTTPPVLDSDGSFFLYSKLTVDKSRWQQGNVFSCSVMHEALHNRYTQKSLSLSP light: DIVMTQSPLSLPVTPGEPASISCRSSQSLVHSNRNTYLHWYQQKPGQAPRLLIYKVSNRFSGVPDRFSGSGSGTDFTLKISRVEAEDVGVYYCGQGTQVPYTFGQGTKLEIKRTVAAPSVFIFPPSDEQLKSGTASVVCLLNNFYPREAKVQWKVDNALQSGNSQESVTEQDSKDSTYSLSSTLTLSKADYEKHKVYACEVTHQGLSSPVTKSFNRGEC | 0.97
CE115HA000 S52cL one-arm antibody (antibody, human IgG1, kappa, L234A L235A, N297A, name in Kabat numbering) heavy: QVQLVESGGGVVQPGRSLRLSCAASGFTFSNAWMHWVRQAPGKGLEWVAQIKAKLNNYATYYAESVKGRFTISRDDSKNSLYLQMNSLKTEDTAVYYCRYVHYGAYYGVDAWGQGTTVTVSSASTKGPSVFPLAPSSKSTSGGTAALGCLVKDYFPEPVTVSWNSGALTSGVHTFPAVLQSSGLYSLSSVVTVPSSSLGTQTYICNVNHKPSNTKVDKKVEPKSCDKTHTCPPCPAPEAAGGPSVFLFPPKPKDTLMISRTPEVTCVVVDVSHEDPEVKFNWYVDGVEVHNAKTKPREEQYASTYRVVSVLTVLHQDWLNGKEYKCKVSNKALPAPIEKTISKAKGQPREPQVYTLPPSRCELTKNQVSLSCAVKGFYPSDIAVEWESNGQPENNYKTTPPVLDSDGSFFLVSKLTVDKSRWQQGNVFSCSVMHEALHNHYTQKSLSLSPDYKDDDDK EPKSSDKTHTCPPCPAPELLGGPSVFLFPPKPKDTLMISRTPEVTCVVVDVSHEDPEVKFNWYVDGVEVHNAKTKPREEQYNSTYRVVSVLTVLHQDWLNGKEYKCKVSNKALPAPIEKTISKAKGQPREPQVCTLPPSRDELTKNQVSLWCLVKGFYPSDIAVEWESNGQPENNYKTTPPVLDSDGSFFLYSKLTVDKSRWQQGNVFSCSVMHEALHNRYTQKSLSLSP light: DIVMTQSPLSLPVTPGEPASISCRSSQSLVHSNRNTYLHWYQQKPGQAPRLLIYKVSNRFSGVPDRFSGSGSGTDFTLKISRVEAEDVGVYYCGQGTQVPYTFGQGTKLEIKRTVAAPSVFIFPPSDEQLKSGTASVVCLLNNFYPREAKVQWKVDNALQSGNSQESVTEQDSKDSTYSLSSTLTLSKADYEKHKVYACEVTHQGLSSPVTKSFNRGEC | 0.98
CE115HA000 S52cV one-arm antibody (antibody, human IgG1, kappa, L234A L235A, N297A, name in Kabat numbering) heavy: QVQLVESGGGVVQPGRSLRLSCAASGFTFSNAWMHWVRQAPGKGLEWVAQIKAKVNNYATYYAESVKGRFTISRDDSKNSLYLQMNSLKTEDTAVYYCRYVHYGAYYGVDAWGQGTTVTVSSASTKGPSVFPLAPSSKSTSGGTAALGCLVKDYFPEPVTVSWNSGALTSGVHTFPAVLQSSGLYSLSSVVTVPSSSLGTQTYICNVNHKPSNTKVDKKVEPKSCDKTHTCPPCPAPEAAGGPSVFLFPPKPKDTLMISRTPEVTCVVVDVSHEDPEVKFNWYVDGVEVHNAKTKPREEQYASTYRVVSVLTVLHQDWLNGKEYKCKVSNKALPAPIEKTISKAKGQPREPQVYTLPPSRCELTKNQVSLSCAVKGFYPSDIAVEWESNGQPENNYKTTPPVLDSDGSFFLVSKLTVDKSRWQQGNVFSCSVMHEALHNHYTQKSLSLSPDYKDDDDK EPKSSDKTHTCPPCPAPELLGGPSVFLFPPKPKDTLMISRTPEVTCVVVDVSHEDPEVKFNWYVDGVEVHNAKTKPREEQYNSTYRVVSVLTVLHQDWLNGKEYKCKVSNKALPAPIEKTISKAKGQPREPQVCTLPPSRDELTKNQVSLWCLVKGFYPSDIAVEWESNGQPENNYKTTPPVLDSDGSFFLYSKLTVDKSRWQQGNVFSCSVMHEALHNRYTQKSLSLSP light: DIVMTQSPLSLPVTPGEPASISCRSSQSLVHSNRNTYLHWYQQKPGQAPRLLIYKVSNRFSGVPDRFSGSGSGTDFTLKISRVEAEDVGVYYCGQGTQVPYTFGQGTKLEIKRTVAAPSVFIFPPSDEQLKSGTASVVCLLNNFYPREAKVQWKVDNALQSGNSQESVTEQDSKDSTYSLSSTLTLSKADYEKHKVYACEVTHQGLSSPVTKSFNRGEC | 0.93
CE115HA000 S52cQ one-arm antibody (antibody, human IgG1, kappa, L234A L235A, N297A, name in Kabat numbering) heavy: QVQLVESGGGVVQPGRSLRLSCAASGFTFSNAWMHWVRQAPGKGLEWVAQIKAKQNNYATYYAESVKGRFTISRDDSKNSLYLQMNSLKTEDTAVYYCRYVHYGAYYGVDAWGQGTTVTVSSASTKGPSVFPLAPSSKSTSGGTAALGCLVKDYFPEPVTVSWNSGALTSGVHTFPAVLQSSGLYSLSSVVTVPSSSLGTQTYICNVNHKPSNTKVDKKVEPKSCDKTHTCPPCPAPEAAGGPSVFLFPPKPKDTLMISRTPEVTCVVVDVSHEDPEVKFNWYVDGVEVHNAKTKPREEQYASTYRVVSVLTVLHQDWLNGKEYKCKVSNKALPAPIEKTISKAKGQPREPQVYTLPPSRCELTKNQVSLSCAVKGFYPSDIAVEWESNGQPENNYKTTPPVLDSDGSFFLVSKLTVDKSRWQQGNVFSCSVMHEALHNHYTQKSLSLSPDYKDDDDK EPKSSDKTHTCPPCPAPELLGGPSVFLFPPKPKDTLMISRTPEVTCVVVDVSHEDPEVKFNWYVDGVEVHNAKTKPREEQYNSTYRVVSVLTVLHQDWLNGKEYKCKVSNKALPAPIEKTISKAKGQPREPQVCTLPPSRDELTKNQVSLWCLVKGFYPSDIAVEWESNGQPENNYKTTPPVLDSDGSFFLYSKLTVDKSRWQQGNVFSCSVMHEALHNRYTQKSLSLSP light: DIVMTQSPLSLPVTPGEPASISCRSSQSLVHSNRNTYLHWYQQKPGQAPRLLIYKVSNRFSGVPDRFSGSGSGTDFTLKISRVEAEDVGVYYCGQGTQVPYTFGQGTKLEIKRTVAAPSVFIFPPSDEQLKSGTASVVCLLNNFYPREAKVQWKVDNALQSGNSQESVTEQDSKDSTYSLSSTLTLSKADYEKHKVYACEVTHQGLSSPVTKSFNRGEC | 1.04
CE115HA000 S52cK one-arm antibody (antibody, human IgG1, kappa, L234A L235A, N297A, name in Kabat numbering) heavy: QVQLVESGGGVVQPGRSLRLSCAASGFTFSNAWMHWVRQAPGKGLEWVAQIKAKKNNYATYYAESVKGRFTISRDDSKNSLYLQMNSLKTEDTAVYYCRYVHYGAYYGVDAWGQGTTVTVSSASTKGPSVFPLAPSSKSTSGGTAALGCLVKDYFPEPVTVSWNSGALTSGVHTFPAVLQSSGLYSLSSVVTVPSSSLGTQTYICNVNHKPSNTKVDKKVEPKSCDKTHTCPPCPAPEAAGGPSVFLFPPKPKDTLMISRTPEVTCVVVDVSHEDPEVKFNWYVDGVEVHNAKTKPREEQYASTYRVVSVLTVLHQDWLNGKEYKCKVSNKALPAPIEKTISKAKGQPREPQVYTLPPSRCELTKNQVSLSCAVKGFYPSDIAVEWESNGQPENNYKTTPPVLDSDGSFFLVSKLTVDKSRWQQGNVFSCSVMHEALHNHYTQKSLSLSPDYKDDDDK EPKSSDKTHTCPPCPAPELLGGPSVFLFPPKPKDTLMISRTPEVTCVVVDVSHEDPEVKFNWYVDGVEVHNAKTKPREEQYNSTYRVVSVLTVLHQDWLNGKEYKCKVSNKALPAPIEKTISKAKGQPREPQVCTLPPSRDELTKNQVSLWCLVKGFYPSDIAVEWESNGQPENNYKTTPPVLDSDGSFFLYSKLTVDKSRWQQGNVFSCSVMHEALHNRYTQKSLSLSP light: DIVMTQSPLSLPVTPGEPASISCRSSQSLVHSNRNTYLHWYQQKPGQAPRLLIYKVSNRFSGVPDRFSGSGSGTDFTLKISRVEAEDVGVYYCGQGTQVPYTFGQGTKLEIKRTVAAPSVFIFPPSDEQLKSGTASVVCLLNNFYPREAKVQWKVDNALQSGNSQESVTEQDSKDSTYSLSSTLTLSKADYEKHKVYACEVTHQGLSSPVTKSFNRGEC | 1.19
CE115HA000 S52cY one-arm antibody (antibody, human IgG1, kappa, L234A L235A, N297A, name in Kabat numbering) heavy: QVQLVESGGGVVQPGRSLRLSCAASGFTFSNAWMHWVRQAPGKGLEWVAQIKAKYNNYATYYAESVKGRFTISRDDSKNSLYLQMNSLKTEDTAVYYCRYVHYGAYYGVDAWGQGTTVTVSSASTKGPSVFPLAPSSKSTSGGTAALGCLVKDYFPEPVTVSWNSGALTSGVHTFPAVLQSSGLYSLSSVVTVPSSSLGTQTYICNVNHKPSNTKVDKKVEPKSCDKTHTCPPCPAPEAAGGPSVFLFPPKPKDTLMISRTPEVTCVVVDVSHEDPEVKFNWYVDGVEVHNAKTKPREEQYASTYRVVSVLTVLHQDWLNGKEYKCKVSNKALPAPIEKTISKAKGQPREPQVYTLPPSRCELTKNQVSLSCAVKGFYPSDIAVEWESNGQPENNYKTTPPVLDSDGSFFLVSKLTVDKSRWQQGNVFSCSVMHEALHNHYTQKSLSLSPDYKDDDDK EPKSSDKTHTCPPCPAPELLGGPSVFLFPPKPKDTLMISRTPEVTCVVVDVSHEDPEVKFNWYVDGVEVHNAKTKPREEQYNSTYRVVSVLTVLHQDWLNGKEYKCKVSNKALPAPIEKTISKAKGQPREPQVCTLPPSRDELTKNQVSLWCLVKGFYPSDIAVEWESNGQPENNYKTTPPVLDSDGSFFLYSKLTVDKSRWQQGNVFSCSVMHEALHNRYTQKSLSLSP light: DIVMTQSPLSLPVTPGEPASISCRSSQSLVHSNRNTYLHWYQQKPGQAPRLLIYKVSNRFSGVPDRFSGSGSGTDFTLKISRVEAEDVGVYYCGQGTQVPYTFGQGTKLEIKRTVAAPSVFIFPPSDEQLKSGTASVVCLLNNFYPREAKVQWKVDNALQSGNSQESVTEQDSKDSTYSLSSTLTLSKADYEKHKVYACEVTHQGLSSPVTKSFNRGEC | 1.11

— US20260049138A1 (Chugai, published 2026)
